Patent US10914725B2, “Culture medium additive, culture medium composition, and method for culturing cells or tissue using same” (NISSAN CHEMICAL INDUSTRIES, LTD., priority 2015, dated 2021)

System: human ovarian cancer cell line SKOV3
Experiment: Cell proliferation test by dispersing SKOV3 cells with growth factors (Experimental Example 4)
Format: cell-based
Settings: 10 days
Method: By a method similar to the preparation method of medium composition in Analysis Example 1, a medium composition containing 10 (v/v) % FBS, and 0.03 (w/v) % of low-molecular agar in DMEM (manufactured by Wako Pure Chemical Industries, Ltd.) was prepared.
Then, human ovarian cancer cell line SKOV3 (manufactured by DS PHARMA BIOMEDICAL CO., LTD.) was suspended in the above-mentioned medium composition containing low-molecular agar at 37,000 cells/mL, and dispensed to the wells of a 96 well flat plane ultra-low attachment surface microplate (manufactured by Corning Incorporated, #3474) at 135 μL per 1 well. The plate was stood in a CO2 incubator (37° C., 5% CO2), and a growth factor was added the next day. A similar operation was performed with 10 (v/v) % FBS-containing DMEM free of low-molecular agar. As a growth factor, human heparin bindability epithelial cell growth factor (hHB-EGF) (manufactured by PeproTech, Inc.) at a final concentration of 30 ng/mL or 100 ng/mL, human epithelial cell growth factor (hEGF) (manufactured by PeproTech, Inc.) and human transforming growth factor α (hTGFα) (manufactured by PeproTech, Inc.) each at a final concentration of 1 ng/mL, 3 ng/mL or 10 ng/mL were added by 15 μL per 1 well.
Successively, the plate was cultured in a standing state in a CO2 incubator (37° C., 5% CO2) for 10 days. As a negative control, DMEM in an amount equal to that of a growth factor was added. CellTiter-Glo Luminescent Cell Viability Assay (manufactured by Promega) (100 μL) was added to the cell culture medium after culturing for 10 days, stood for 10 min at room temperature, and the amount of luminescence was measured by a microplate reader (“FlexStation 3”, manufactured by Molecular Devices) and according to the protocol recommended by Promega. The amount of luminescence of the medium composition alone was subtracted, whereby the number of viable cells was measured.
The relative cell number when the amount of luminescence of the negative control is 1 was determined from the amount of luminescence (corresponding to the number of SKOV3 cells) after culturing for 10 days after the addition of the growth factor, and shown in Table 11.

| Molecule | relative cell number (negative control = 1) (growth factor 30 ng/mL, low-molecular agar 0 (w/v)%) | relative cell number (negative control = 1) (growth factor 30 ng/mL, low-molecular agar 0.03 (w/v)%) | relative cell number (negative control = 1) (growth factor 100 ng/mL, low-molecular agar 0 (w/v)%) | relative cell number (negative control = 1) (growth factor 100 ng/mL, low-molecular agar 0.03 (w/v)%) | relative cell number (negative control = 1) (growth factor 1 ng/mL, low-molecular agar 0 (w/v)%) | relative cell number (negative control = 1) (growth factor 1 ng/mL, low-molecular agar 0.03 (w/v)%) | relative cell number (negative control = 1) (growth factor 3 ng/mL, low-molecular agar 0 (w/v)%) | relative cell number (negative control = 1) (growth factor 3 ng/mL, low-molecular agar 0.03 (w/v)%) | relative cell number (negative control = 1) (growth factor 10 ng/mL, low-molecular agar 0 (w/v)%) | relative cell number (negative control = 1) (growth factor 10 ng/mL, low-molecular agar 0.03 (w/v)%) |
| --- | --- | --- | --- | --- | --- | --- | --- | --- | --- | --- |
| hHB-EGF: human heparin bindability epithelial cell growth factor (PeproTech) (protein, UniProt Q99075 63-148, looked up) Heparin-binding EGF-like …: DLQEADLDLLRVTLSSKPQALATPNKEEHGKRKKKGKGLGKKRDPCLRKYKDFCIHGECKYVKELRAPSCICHPGYHGERCHGLSL | 1.358 | 1.774 | 1.451 | 1.748 |  |  |  |  |  |  |
| hEGF: human epithelial cell growth factor (PeproTech) (protein, UniProt P01133 23-1207, looked up, Pro-epidermal growth factor) Pro-epidermal growth factor: PQHWSCPEGTLAGNGNSTCVGPAPFLIFSHGNSIFRIDTEGTNYEQLVVDAGVSVIMDFHYNEKRIYWVDLERQLLQRVFLNGSRQERVCNIEKNVSGMAINWINEEVIWSNQQEGIITVTDMKGNNSHILLSALKYPANVAVDPVERFIFWSSEVAGSLYRADLDGVGVKALLETSEKITAVSLDVLDKRLFWIQYNREGSNSLICSCDYDGGSVHISKHPTQHNLFAMSLFGDRIFYSTWKMKTIWIANKHTGKDMVRINLHSSFVPLGELKVVHPLAQPKAEDDTWEPEQKLCKLRKGNCSSTVCGQDLQSHLCMCAEGYALSRDRKYCEDVNECAFWNHGCTLGCKNTPGSYYCTCPVGFVLLPDGKRCHQLVSCPRNVSECSHDCVLTSEGPLCFCPEGSVLERDGKTCSGCSSPDNGGCSQLCVPLSPVSWECDCFPGYDLQLDEKSCAASGPQPFLLFANSQDIRHMHFDGTDYGTLLSQQMGMVYALDHDPVENKIYFAHTALKWIERANMDGSQRERLIEEGVDVPEGLAVDWIGRRFYWTDRGKSLIGRSDLNGKRSKIITKENISQPRGIAVHPMAKRLFWTDTGINPRIESSSLQGLGRLVIASSDLIWPSGITIDFLTDKLYWCDAKQSVIEMANLDGSKRRRLTQNDVGHPFAVAVFEDYVWFSDWAMPSVMRVNKRTGKDRVRLQGSMLKPSSLVVVHPLAKPGADPCLYQNGGCEHICKKRLGTAWCSCREGFMKASDGKTCLALDGHQLLAGGEVDLKNQVTPLDILSKTRVSEDNITESQHMLVAEIMVSDQDDCAPVGCSMYARCISEGEDATCQCLKGFAGDGKLCSDIDECEMGVPVCPPASSKCINTEGGYVCRCSEGYQGDGIHCLDIDECQLGEHSCGENASCTNTEGGYTCMCAGRLSEPGLICPDSTPPPHLREDDHHYSVRNSDSECPLSHDGYCLHDGVCMYIEALDKYACNCVVGYIGERCQYRDLKWWELRHAGHGQQQKVIVVAVCVVVLVMLLLLSLWGAHYYRTQKLLSKNPKNPYEESSRDVRSRRPADTEDGMSSCPQPWFVVIKEHQDLKNGGQPVAGEDGQAADGSMQPTSWRQEPQLCGMGTEQGCWIPVSSDKGSCPQVMERSFHMPSYGTQTLEGGVEKPHSLLSANPLWQQRALDPPHQMELTQ |  |  |  |  | 1.380 | 1.413 | 1.392 | 1.745 | 1.678 | 1.984 |
